The nature of data set [1]: Mevalonate decarboxylation activity followed by inorganic phosphate production (ammonium molybdate method). The format is biochemical. The protocol:
The reaction medium contained 100 mM mevalonate, 40 mM ATP, 10 mM MgCl2, 20 mM KCl, 0.5 mM DTT and enzyme preparation varying from 0.01 to 0.05 mg/ml of protein. 50 mM sodium citrate was used in the range of pH from 4 to 6, and 50 mM Tris-HCl for pH 7 and 7.5. Enzyme-free control assays were carried out in parallel. After 72 h incubation, inorganic phosphate was quantified colorimetrically according to the ammonium molybdate method (Gawronski J D, Benson D R, Anal. Biochem. 327 (2004) 114-118). A 50 μl sample (containing not more than 0.5 μmole of phosphate) was mixed with 150 μl of ammonium molybdate reagent containing 50% v/v acetone, 1.25 N H2SO4, 2.5 mM (NH4)6Mo7O24 and then with 10 μl 1 M citric acid. The mixture was incubated for 2 minutes at room temperature. The absorbance of ammonium phosphomolybdate formed was measured at 355 nm and the quantity of inorganic phosphate estimated using a calibration curve obtained with potassium phosphate.
(§1) The complete assay for mevalonate decarboxylation contains reaction buffer, 100 mM mevalonate, 40 mM ATP, 10 mM MgCl2, 20 mM KCl, 0.5 mM DTT and enzyme preparation at a concentration ranging from 0.01 to 0.05 mg/ml of protein. 50 mM sodium citrate is used in the range of pH from 4 to 6, and 50 mM Tris-HCl for pH 7 and 7.5. Control reactions are carried out in the absence of enzyme, substrate or co-factor.
Inorganic phosphate concentration is measured by spectroscopic colorimetry according to the ammonium molybdate method (Gawronski J D, Benson D R, Anal. Biochem. 327 (2004) 114-118). A 50 μl aliquot from the reaction assay (containing not more than 0.5 μmole of phosphate) is mixed with 150 μl ammonium molybdate reagent, containing 50% volume acetone, 1.25 N H2SO4, 2.5 mM (NH4)6Mo7O24 and then with 10 μl 1 M citric acid. The mixture is then incubated for 2 minutes at room temperature. The absorbance of ammonium phosphomolybdate formed was measured at 355 nm and the quantity of inorganic phosphate estimated using a calibration curve obtained with potassium phosphate.

The nature of data set [2]: Product formation as function of mevalonate concentration (permanganate assay). In kind it is biochemical. Particulars: purified enzyme, range of mevalonate concentrations (FIG. 6). Here is the method:
as §1
The formation of products containing double-bonds is followed by oxidization with alkaline potassium permanganate solution, resulting in increase of absorbance at 420 nm.
To an aliquot of reaction mixture diluted with H2O to 120 μl, 80 μl of permanganate reagent, containing 5 mM KMnO4 and 50 mM NaOH, is added. The mixture is kept at room temperature for 20 min and the absorbance at 420 nm is measured. The calibration curve is prepared using commercial isoprenol.

B1: Thermoplasma acidophilum (accession number Q9H1N1): MDP decarboxylase enzyme inferred from the genome of Thermoplasma acidophilum (protein, listed as Thermoplasma acidophilum)
chain: MLHHHHHHTYRSIGSTAYPTIGVVLLGGIANPVTRTPLHTSAGIAYSDSCGSIRSETRIYADEATHIYFNGTESTDDNRSVRRVLDRYSSVFEEAFGTKTVSYSSQNFGILSGSSDAGAASIGAAILGLKPDLDPHDVENDLRAVSESAGRSLFGGLTITWSDGFHAYTEKILDPEAFSGYSIVAFAFDYQRNPSDVIHQNIVRSDLYPARKKHADEHAHMIKEYAKTNDIKGIFDLAQEDTEEYHSILRGVGVNVIRENMQKLISYLKLIRKDYWNAYIVTGGSNVYVAVESENADRLFSIENTFGSKKKMLRIVGGAWHRRPE
Turning to B1, the “phosphate production with mevalonate as substrate” value (shortened to “phosphate production”) in data set [1] (purified proteins (FIG. 5)) was “significant increase in phosphate production”.

B2: Picrophilus torridus MDP decarboxylase: diphosphomevalonate (MDP) decarboxylase EC 4.1.1.33 from Picrophilus torridus, expressed in E. coli from the native or codon-optimized gene (protein, listed as Picrophilus torridus)
chain: MENYNVKTRAFPTIGIILLGGISDKKNRIPLHTTAGIAYTGINNDVYTETKLYVSKDEKCYIDGKEIDLNSDRSPSKVIDKFKHEILMRVNLDDENNLSIDSRNFNILSGSSDSGAAALGECIESIFEYNINIFTFENDLQRISESVGRSLYGGLTVNYANGRESLTEPLLEPEAFNNFTIIGAHFNIDRKPSNEIHENIIKHENYRERIKSAERKAKKLEELSRNANIKGIFELAESDTVEYHKMLHDVGVDIINDRMENLIERVKEMKNNFWNSYIVTGGPNVFVITEKKDVDKAMEGLNDLCDDIRLLKVAGKPQVISKNF
modifications: DSM 9790
notes: diphosphomevalonate (MDP) decarboxylase EC 4.1.1.33 from Picrophilus torridus, expressed in E. coli from the native or codon-optimized gene
Take B2: in data set [2], the conversion rate entry is given as “increase with the concentration of mevalonate”. The “enzyme activity with mevalonate as substrate” value in data set [1] (crude lysate of E. coli, optimized gene versus native sequence (FIG. 4b)) is given as “higher enzyme activity”. The “phosphate production” value in data set [1] (library screening, E. coli extracts, 100 mM mevalonate, 40 mM ATP, 72 h incubation) is listed as “reproducible increase in phosphate production over the background level”.

B3: Thermoplasma volcanium (accession number Q97BY2): MDP decarboxylase enzyme inferred from the genome of Thermoplasma volcanium (protein, listed as Thermoplasma volcanium)
chain: MLHHHHHHSNSSITSVAYPTIGVVLLGGIANEKTRTPLHTSAGIAYTDSCGSIRTESTIYGDSEMHIYFNGTESKDENRSVKSVLERYRNELQSFFGKKDVSYSSLNYGILSGSSDAGAASIGAILSFIDKKNDIHDIENDIRMISESAGRSLHGGLTITWSDGYSAYTERVLGPEHFNNYAIVGFSFDYPRNPSDTIHQNIIKSKRYKQRTIDADEHAHEIKEMARTDDIEGIFEKAEEDTEEYHSILREVGVLVIRENMQKLIEFIKILRKEFWNSYIVTGGSNVYVIVRRDDLERLIHIKNTFGSKPKILNVAGPAWIKKVESD
With B3, in data set [1] (purified proteins (FIG. 5)), the “phosphate production” value is reported as “significant increase in phosphate production”.

Source of the values: patent US9752163B2, “Process for the production of isoprenol from mevalonate employing a diphosphomevalonate decarboxylase” (Global Bioenergies, priority 2009, dated 2017).
